Assay results taken from article PMC3019263 (Archives of biochemistry and biophysics, 2010).

Target: the molecule itself
Assay: SEC

B1: PheH117, the regulatory domain of rat phenylalanine hydroxylase, lacking residues after Thr117 (domain or fragment, UniProt P04176 1-117, looked up)
chain: MAAVVLENGVLSRKLSDFGQETSYIEDNSNQNGAISLIFSLKEEVGALAKVLRLFEENDINLTHIESRPSRLNKDEYEFFTYLDKRTKPVLGSIIKSLRNDIGATVHELSRDKEKNT
stoichiometry N: 2
